Reference: article PMC6697747

Columns and labels:
[1] = confocal, β1-integrin co-internalisation with NRP1, HT29; conditions: glycan lost; control: NRP1-WT
[2] = confocal, Met co-internalisation with NRP1, HT29; conditions: glycan lost; control: NRP1-WT
[3] = cycloheximide chase, western blot; conditions: glycan lost; control: NRP1-WT
[4] = confocal, surface delivery; 24 h transient or serum-free; conditions: glycan lost; control: NRP1-WT
[5] = confocal, EEA1/Rab7 co-localisation, 10% FBS medium; conditions: glycan lost; control: NRP1-WT
[6] = confocal, HGF-stimulated endocytosis after serum starvation; conditions: glycan lost; control: NRP1-WT
[7] = confocal, HT29 NRP1-WT cells, 24 h treatment; conditions: control: DMSO

| Substance | localisation_or_trafficking [1] | localisation_or_trafficking [2] | degradation_or_half_life [3] | localisation_or_trafficking [4] | localisation_or_trafficking [5] | localisation_or_trafficking [6] | localisation_or_trafficking ([7]; glycan changed form) | localisation_or_trafficking ([7]; glycan lost) |
| --- | --- | --- | --- | --- | --- | --- | --- | --- |
| Neuropilin-1 (NRP1): N150Q | increases | increases | increases | no change | changes | increases |  |  |
| Neuropilin-1 (NRP1): N150Q/N261Q |  |  | increases |  | changes |  |  |  |
| Neuropilin-1 (NRP1): N261Q | increases | increases | increases | no change | changes | increases |  |  |
| Neuropilin-1 (NRP1): N300Q |  |  | no change |  | no change | no change |  |  |
| Neuropilin-1 (NRP1): N522Q |  |  | no change |  | no change | no change |  |  |
| Neuropilin-1 (NRP1): N842Q |  |  | no change |  | no change | no change |  |  |
| Neuropilin-1 (NRP1): S612A |  |  | no change |  | no change | no change |  |  |
| Neuropilin-1 (NRP1): swainsonine |  |  |  |  |  |  | changes |  |
| Neuropilin-1 (NRP1): tunicamycin |  |  |  |  |  |  |  | changes |
